Assay results as given in patent publication US20140154256A1 (published 2014).

What was measured:
[1] = target: T1, recombinant human IL-1α (human, UniProt P01583 113-271); experiment: SPR (Biacore); hIL-1α as 2nd antigen, DVD2-Ig already occupied by hIL-1β
T1 construct: Bought recombinant protein; also called rhIL-1α; hIL-1α
T1 sequence (looked up): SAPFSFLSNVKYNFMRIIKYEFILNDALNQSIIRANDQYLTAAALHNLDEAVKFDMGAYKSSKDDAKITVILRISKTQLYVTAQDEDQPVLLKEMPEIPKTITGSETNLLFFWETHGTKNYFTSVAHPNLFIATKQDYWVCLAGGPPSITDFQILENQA
Procedure: (§1) The equilibrium dissociation constant (M) of the reaction between DVD-Ig and rhIL1α/β was then calculated from the kinetic rate constants by the following formula: KD=koff/kon. Aliquots of rhIL1α/β samples were also simultaneously injected over a blank reference and reaction CM surface to record and subtract any nonspecific binding background to eliminate the majority of the refractive index change and injection noise. Surfaces were regenerated with two subsequent […] injections of 10 mM Glycine (pH 1.5) at a flow rate of […]. The anti-Fc antibody immobilized surfaces were completely regenerated and retained their full capture capacity over twelve cycles. The apparent stoichiometry of the captured DVD-Ig-rhIL1α/β complex was calculated under saturating binding conditions (steady-state equilibrium) using the following formula: […]
(§2) In addition, tetravalent dual-specific antigen binding of DVD-Ig was also analyzed by Biacore (Table 14). DVD-Ig was first captured via a goat anti-human Fc antibody on the Biacore sensor chip, and the first antigen was injected and a binding signal observed. As the DVD-Ig was saturated by the first antigen, the second antigen was then injected and the second signal observed. This was done either by first injecting IL-1β then IL-1α or by first injecting IL-1α followed by IL-1β for DVD2-Ig. In either sequence, a dual-binding activity was detected. […]

[2] = target: T2, recombinant human IL-1β (human, UniProt P01584 117-269); experiment: SPR (Biacore); hIL-1β as 2nd antigen, DVD2-Ig already occupied by hIL-1α
T2 construct: also called rhIL-1β; hIL-1β
Procedure: as §1, §2

[3] = target: T2, recombinant human IL-1β; experiment: SPR (Biacore)
Procedure: as §1, with “Purified DVD-Ig samples were diluted in HEPES-buffered saline for capture across goat anti-human IgG Fc specific reaction surfaces and injected over reaction matrices at a flow rate of […]. The association and dissociation rate constants, kon (M-1s-1) and koff (s−1) were determined under a continuous flow rate of […]. […] The equilibrium” for “The equilibrium”
(§3) The affinity of the two DVD-Igs to hIL-1 as compared to the affinity of chimeric Abs to hIL-1 was similar as indicated by the evaluation of the stoichiometry to IL-1. Both chimeric Abs, being bivalent monospecific, bound to IL-1α and IL-1β on Biocore with a stoichiometry of 1.6 and 1.7, respectively. This is common for an IgG due to inter-molecular interference when antibodies are immobilized densely on the Biacore sense chip resulting in stoichiometry being in the range from 1.5 to 2.0.

[4] = target: T1, recombinant human IL-1α; experiment: SPR (Biacore)
Procedure: as §1, with “Purified DVD-Ig samples were diluted in HEPES-buffered saline for capture across goat anti-human IgG Fc specific reaction surfaces and injected over reaction matrices at a flow rate of […]. The association and dissociation rate constants, kon (M-1s-1) and koff (s−1) were determined under a continuous flow rate of […]. […] The equilibrium” for “The equilibrium”
as §3

[5] = target: T1, recombinant human IL-1α; experiment: SPR (Biacore); hIL-1α as 1st antigen
Procedure: as §1, §2

[6] = target: T2, recombinant human IL-1β; experiment: SPR (Biacore); hIL-1β as 1st antigen
Procedure: as §1, §2

[7] = target: T2, recombinant human IL-1β; experiment: cell-based or functional assay
[8] = target: T1, recombinant human IL-1α; experiment: cell-based or functional assay

B1: hIL-1α/βDVD2-Ig (bispecific antibody, human IgG1, kappa)
heavy: not shown
light: NIVLTQSPASLAVSLGQRATISCRASESVDSYGNSYMHWYQQKPGQPPKLLIYLASNLESGVPARFSGSGSRTDFTLTIDPVEADDAATYYCQQNNEDPFTFGSGTKLEIKRADAAPNIQMTQTTSSLSASLGDRVTISCRASQDISNCLNWYQQKPDGTVKLLIYYTSRLHSGVPSRFSGSGSGTDYSLTISNLEQEDIATYFCQQGKTLPYAFGGGTKLEINRTVAAPSVFIFPPSDEQLKSGTASVVCLLNNFYPREAKVQWKVDNALQSGNSQESVTEQDSKDSTYSLSSTLTLSKADYEKHKVYACEVTHQGLSSPVTKSFNRGEC
notes: 13F5.G5 V - linker (AKTTPP heavy, ADAAP light) - 3D12.E3 V - human Cγ1/Cκ; also called hIL-1a/bDVD2-Ig
Stoichiometry hIL1α:DVD-Ig [1]: 1.2
Stoichiometry hILβ:DVD-Ig [2]: 1.3
fold higher affinity than DVD1-Ig [3]: 3 fold
fold lower affinity than the chimeric 3D12.E3 Ab [4]: 3 fold
Stoichiometry hIL1α:DVD-Ig [5]: 1.8
Stoichiometry hILβ:DVD-Ig [6]: 1.6
dual-inhibition activity, MRC-5 assay with equal amounts of hIL-1α and hIL-1β both present [7]: 1.2 nM
dual-inhibition activity, MRC-5 assay with equal amounts of hIL-1α and hIL-1β both present [8]: 1.2 nM
